The results in this text go back to the supplement of paper PMC9170038.

The test system of this series is MS2 coat protein. Description: apparent KD of MS2 coat protein; designed switch direction (-1 OFF switch, 1 ON switch): 1; higher = weaker reporter binding. The method, boiled down: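 The reported apparent KD is a per-design median over clusters, from curve fits of normalised cluster fluorescence. Protein titrations used SNAP-549-labelled MS2 coat protein, doubled from 0.7 or 1.5 nM to 3 µM, in Tris-HCl pH 7.5 buffer with KCl, MgCl2, BSA, DTT, tRNA and Tween-20, with no input, 200 uM small-molecule ligand, or an oligonucleotide input. The RNA switches were transcribed on Illumina chips by stalled E. coli RNA polymerase.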

Setting [1] is: input ligand: microRNA oligo, concentration not stated.
[2] abbreviates: Eterna round: R95, input ligand: FMN 200 uM.
The mark [3] stands for this setting: Eterna round: R95, input ligand: microRNA oligo, concentration not stated.
The mark [4] stands for this setting: Eterna round: R95, input ligand: none.

With “AGAUAUCCACGACAUGAGGAUCACCCAUGUUGCUACGACAUGGAGGAUAUUCACGAUACACCUGUGAAGAAGGCUAAGGAUAUU [Eternabot solution 16] (Eterna round: R96, puzzle: Same State NG 3)”, the “apparent KD of MS2 coat protein” value (input ligand: FMN 200 uM) amounted to 631 nM, the “apparent KD of MS2 coat protein” value under setting [1] came to 508 nM and the “apparent KD of MS2 coat protein” value (input ligand: none) turned out to be 776 nM.
The matching figures for “AGAUCAUGACGAGGAUAUGGAACAUGAGGAUCACCCAUGUAUGUUCCAUAACGCGAAUAAAGAAUCCAGAAGGCGUCGUGGUCA [Mat - Same State NG 2 - JL mod - D30] (Eterna round: R96, puzzle: Same State NG 2)”: 10.2 nM, 78.9 nM and 89.1 nM.
In the case of “AGAUCAUGACGAGGAUAUGGAACAUGAGGAUCACCCAUGUAUGUUCCAUAACGCGAAUGACGAAUCCAGAAGGCGUCGUGAUCA [Mat - Same State NG 2 - JL mod - D26] (Eterna round: R96, puzzle: Same State NG 2)”, the “apparent KD of MS2 coat protein” value reads like this: (input ligand: FMN 200 uM) 18.1 nM; under setting [1], 92.1 nM; (input ligand: none) 116 nM.
The matching figures for “AGCCGAGACACAGGAUAUAGAUAUCUACAUGAGGAUCACCCAUGUAGCAACACGUGGUAGUGAUUCUAGAAGGGUGCUCGGCGC [Omei SS(NG)2 Cv8] (Eterna round: R96, puzzle: Same State NG 2)”: 25.3 nM, 170 nM and 189 nM.
The matching figures for “AGCCUGCCGCAAGGAUAUGAAGCUUUCGCUCCGUCAGAAGGUGCACAUGAGGAUCACCCAUGUAUGCAGGCCAAGAAAUAAAAC [Inbilerate] (Eterna round: R96, puzzle: Same State NG 1)”: 20.1 nM, 33.9 nM and 52.9 nM.
“AGCGAAAUAAGCAAGGAUAUGUAAUUUGGCACAUGAGGAUCACCCAUGUCAAUCCAUUUUUUGGAACAGAAGGUGCAUUUUUUUU [ak third] (puzzle: Same State 2)”: the “apparent KD of MS2 coat protein” value runs as follows: under setting [2], 69 nM; under setting [3], 100 nM; under setting [4], 102 nM.
In the case of “AGCGAACAGGCUAACAUGAGGAUCACCCAUGUGGACUCAUGUUAGGAUAUCGGGAAGGAGGAAACCGAGAAGGGACGGUGAGCC [AK SSNG3-V2-46] (Eterna round: R96, puzzle: Same State NG 3)”, the “apparent KD of MS2 coat protein” value (input ligand: FMN 200 uM) was 332 nM, the “apparent KD of MS2 coat protein” value under setting [1] amounted to 14.6 nM and the “apparent KD of MS2 coat protein” value (input ligand: none) is 30.6 nM.
For “AGCUAGUACCGAGGAUAUACAUACAUGAGGAUCACCCAUGUAUACAUGAAAUAUUGAGACUACAUGUAGAAGGCGGUACUAGCA [Mat - Same State NG 2 - JL mod - D44] (Eterna round: R96, puzzle: Same State NG 2)”, in that order: 13.6 nM, 28.4 nM and 46.4 nM.
For “AGCUAGUACCGAGGAUAUACGUACAUGAGGAUCACCCAUGUAUACAUGGUUUAAUGAGACUACAUGUAGAAGGCGGUACUAGCA [JL SSNG2 1.25] (Eterna round: R96, puzzle: Same State NG 2)”, in that order: 175 nM, 532 nM and 636 nM.
In the case of “AGCUAUCGAAAACGAUAGCAAAAGCAUGUACAUGAGGAUCACCCAUGUCAUGUACAAGCUUUUUGUUCGUCUUAAAA [Zipper 23 - 14] (puzzle: Sensor for hsa-mir-208a)”, the “apparent KD of MS2 coat protein” value is, setting by setting: under setting [2], 430 nM; under setting [3], 11.7 nM; under setting [4], 334 nM.
For “AGCUAUCGCGUACGAUAGCUGAAGCGUGUACAUGAGGAUCACCCAUGUCAUGUGCAAGCUUUUUGCUCGUCUUAUUG [JL-shm-2.29 JL mod] (puzzle: Sensor for hsa-mir-208a)”, in that order: 353 nM, 14.8 nM and 459 nM.
For “AGGCCAUCGGGAGGAUAUGGCACCUUAUUGGUGCCAGAAGGUCCAACAUGAGGAUCACCCAUGUGGGAGAGUUCUAAUGAACAU [Fiskers NG1(SS) - 3] (Eterna round: R96, puzzle: Same State NG 1)”, the “apparent KD of MS2 coat protein” value is, setting by setting: (input ligand: FMN 200 uM) 28.4 nM; under setting [1], 25.3 nM; (input ligand: none) 32.2 nM.
For “AGGCUCAGACGAGGAUAUAUGUAAUAACAUGAGGAUCACCCAUGUGUCGAGCUUCGGCUCGACACAUAGAAGGCGUCUGAGCCA [SSNG2/2-A1] (Eterna round: R96, puzzle: Same State NG 2)”, in that order: 8.75 nM, 17.4 nM and 25.7 nM.
The matching figures for “AGGCUCAGACUAGGAUAUACGUGGUCACAUGAGGAUCACCCAUGUCUCGAGCUUCGGCUCGAGGCGUAGAAGGAGUCUGAGCCA [SSNG2/6-D1] (Eterna round: R96, puzzle: Same State NG 2)”: 119 nM, 260 nM and 371 nM.
For “AGGCUCAGAGCAGGAUAUAUGUCUCGAGCUUCGGCUCGAGACAUGAGGAUCACCCAUGUAAUAACAUAGAAGGGCUCUGAGCCA [SSNG2/1-B1] (Eterna round: R96, puzzle: Same State NG 2)”, in that order: 11.2 nM, 45.8 nM and 63.4 nM.
For the sequence “AGGGAGGAAGCUGAGGAUAUCGUAGGGAGGACAUGAGGAUCACCCAUGUGUAUAGAAUUGGAGGACGAGAAGGCAGAGGAGUGGG [JR_SS2_Sub051] (puzzle: Same State 2)”, the “apparent KD of MS2 coat protein” value is, setting by setting: under setting [2], 56.6 nM; under setting [3], 58.5 nM; under setting [4], 58.2 nM.
The matching figures for “AGUCCAGCAAGAGCUGGACAAAAGCAUGUACAUGAGGAUCACCCAUGUUCAUGUACAAGCUUUUUGCAAGUCAAAAG [Mat - hsa-mir-208a - Mod of JL - 73] (puzzle: Sensor for hsa-mir-208a)”: 321 nM, 23.9 nM and 416 nM.
With “AGUCCAGCCAGAGCUGGACAAAAGCAUGUACAUGAGGAUCACCCAUGUUCAUGUACAAGCUUUUUGCAAGUCAAAAU [Mat - hsa-mir-208a - Mod of JL - 83] (Eterna round: R96, puzzle: Sensor for hsa-mir-208a)”, the “apparent KD of MS2 coat protein” value is, setting by setting: (input ligand: FMN 200 uM) 578 nM; under setting [1], 16 nM; (input ligand: none) 592 nM.
Regarding “AGUCCAGCCAGAGCUGGACAAAAGCAUGUACAUGAGGAUCACCCAUGUUCAUGUACAAGCUUUUUGCAAGUCAAAAU [Mat - hsa-mir-208a - Mod of JL - 83] (puzzle: Sensor for hsa-mir-208a)”, the “apparent KD of MS2 coat protein” value was 614 nM under setting [2], 16.8 nM under setting [3] and 1110 nM under setting [4].
For “AGUCCAGCCUGAGCUGGACAAAAGCAUGUACAUGAGGAUCACCCAUGUCAUGUACAAGCUUUAUGCUCGUCUUAAAA [Mat - hsa-mir-208a - Mod of JL - D15] (puzzle: Sensor for hsa-mir-208a)”, in that order: 224 nM, 15.6 nM and 298 nM.
